The values that follow come from the DeepSol protein solubility set.

The data set in a line: soluble on expression in E. coli; label from the status in PepcDB or PDB records.
For “MGSDKIHHHHHHMMTYRDAWFELALLTNGRSFPRHTHDEFVISANLSGMETVWLDGETFVATNDMVTTYNPNQLQGSDNAFDRWQCASLYVHPQAFEHYFHQTFLFSQGWNPSAQLASELKQLVTSDLDDSARQERIILLLAGLMEGQHRMLPQSQVKEAERITRIKEGLLNDLSEVPTLDQLAQQESLSVAHLVRSFNQAVGLPPLAWLMQRRMCKARELLRQGTAISQVAGDVGFADQAHFTKAFNRYNAMTPGQFRRINF”, the “soluble on expression in E. coli” value is on record as “not soluble”.
Next, “MSLNAKPKDTVIANARIVLADRVIEQGWLALANGRVAEIGEGRAPAGAEDAGGDLIMPGLIELHTDHLEAHYVPRPKVFWNPVAAVVSYDGQLATSGITTVFDSLRVWREDGAEEVDGRAGVLAAAITTARDADLLRADHFLHLRCEIPMPSVVEEAKELIDRPDVKLMSLMDHTPGQRQFRDEGKLRDYYRGKNGGKTDAQLDELFAKRFEYQKAYAATNMREIVALAHQYNIPLASHDDTTEENVADAVRDRVSVAEFPTTLEAARGLHQAGIDILMGAPNVVRGGSHSGNIAAVDLAREGLLDILSSDYIPSSLLMAALQLPEHVPAISLPAAVRTVTKAPAEAVGLSDRGEIAVGKRADLIRVHIAGSVPVVRSVWREGGRVAEGHHHHHH”: “soluble”.
Next, “MGSDKIHHHHHHMSFSNEDRDVFIIKTDRMIDRGALMSRYSRASDPDIRSVFHREFEGNQKRSEDFYRRIFLEYGDESIAELVTAQVGIQNVSNVISKVIEEIRIGLSYLEKSTRYVAYDRKVDGHYLFMQAEKIGLSGEAAREYTDLCNRLFDLYSSTLPRIEEEISRQWPIESFDFNIDGNPRNYKELDENGRKLAQKSYRSSVRSRALDDARFILPASTLTNMGVSGNGRSFIHLIQKLMEYGVPESERLAHDLYEELKGEFPQIIDDALSQHGQDIINYKRSLASLFPYTDGGRFEKVRLIKYSNEREEMQKVLALLMYPFAEDASGIISRIKAMELSEASAILERIRDLRKNRRMKVGRPFEAVNYVFEVTTNYGAFRDLQRHRFLSIVRKPLTVSYGFDVPPIIAKMPDLSEEYAEAMKDAERVYRIIKERYGAWIAQYAVPFAYRYPVVFTTNLAEATYFIELRSTPQAHFDLRDIAIRMYNEIKSVHPSLAGIIKFVDTGDYPLGRLSAEVRKNVKAGGI”: “not soluble”.
Take “MGHHHHHHHHHHSSGHIEGRHMKLEFMNLLSENKKENYYYCGENKVALVTGAGRGIGREIAKMLAKSVSHVICISRTQKSCDSVVDEIKSFGYESSGYAGDVSKKEEISEVINKILTEHKNVDILVNNAGITRDNLFLRMKNDEWEDVLRTNLNSLFYITQPISKRMINNRYGRIINISSIVGLTGNVGQANYSSSKAGVIGFTKSLAKELASRNITVNAIAPGFISSDMTDKISEQIKKNIISNIPAGRMGTPEEVANLACFLSSDKSGYINGRVFVIDGGLSP”: the “soluble on expression in E. coli” value is reported as “soluble”.
To “TNAVNIVMRQPTTPNFSSALNITSANEGGSAMQIRGVEKALGTLKITHENPSVDKEYDENAAALSIDIVKKQKGGKGTAAQGIYINSTSGTAGKMLRIRNKNKDKFYVGPDGDFWSCASSIVDGNLTVKDPTSGKHAATKDYVDEKIAELKKLILKK” belongs “soluble”; to “MSAPAAGATAGGDDAADRNVEMWKIKRLIKSLELARGNGTSMISLIIPPKDQVARIQRMLAEEYGTASNIKSRVNRLSVLGAITSVQGRLKLYNKVPPNGLVVYCGTIMTDEGKEKKVNIDFEPFKAINTSLYLCDNKFHTEALQGLLADDNKFGFIIMDGNGCLFGTLQGNTREVLHKFTVDLPKKHGRGGQSAVRFARLRNEKRHNYVRKVAENSVEQFIKNDKVTVAGLILAGSADFKTELGQSDMFDQRLQAKMIKTVDIAYGGENGFNQAIELAADTLASVKFIQEKKLIGGYFDEISQDTGKYVFGVKDTLAALEMGAIETLICWENLDIVRYKMKNSLGEDILLNLRPDEEKDKSHFTDSETGQDMEIIETMPLLEWFANNYKNFGAALEIVTDKSQEGAQFVRGFGGIGGLLRYRVDLAHVDLEDELDNIDLDDY”, “not soluble”; to “MCDKSKTVLDYTIEFLDKYIPEWFETGNKCPLFIFFSGPQGSGKSFTSIQIYNHLMEKYGGEKSIGYASIDDFYLTHEDQLKLNEQFKNNKLLQGRGLPGTHDMKLLQEVLNTIFNNNEHPDQDTVVLPKYDKSQFKGEGDRCPTGQKIKLPVDIFILEGWFLGFNPILQGIENNDLLTGDMVDVNAKLFFYSDLLWRNPEIKSLGIVFTTDNINNVYGWRLQQEHELISKVGKGMTDEQVHAFVDRYMPSYKLYLNDFVRSESLGSIATLTLGIDSNRNVYSTKTRCIE”, “soluble”.
To “MSLNLTVSDVVELMGDAVVQTGEASLQTQPVEWVSVIETPVENFVRENELVLTTGIGCGEDEERFLQFVHDIAASNAAALAIAMGRFVKHIPDRVLHYASTHGLILLEIPWELRFADLIQSVLLQMEQRKQKEIEQAESLRKQLLEMEGHHHHHH” belongs “soluble”; to “MYILVTTGSMGFKRLFDAIVKSVIGKRIVIQTGKIDPTIYRNQNVTTFSFDPDLEKWIANASLVITHQGKTAMEAVVMYRKPVIMVYNNDWKSATTLSDAKKYAEILGATFLSDPITWSDYNVLLEAIENANEPNVFDTGTPNLVKHVLSEL”, “soluble”; to “MEVDTASSRHSTVLKRKATDSINEILNYGQSSTSPQKRCKKAASLHKYRDMETYHKIIKTYKAPTWYGCAVSPRDLADYGWACVKKDCVKCIECEQYLSTVLPNICKVSFNVYNSSLQDIHEKMTTAHRTTCKLRCGAPPFRIVEPTAKEVMDGIQRRLSDSKKIIDEDLKADIPSDVNLPKIEGVPEQLIYVAALGWHVSMPKRGSLLFGCDNCARELAIRCGNKFDPIHNHERWCPRIEMDDHGEPSWQSDLNTVLNTKNHVTNRYTGSSIFKEAYAARRLLDSSLSTIITPNYI”, “not soluble”.
To “MPLVQMKDILMKANQENYGVGAFSVTNMEMVMGAIKAAEELSSPLILQIAEVRLNHSPIHMIGPLMVAAAKQATVPVAVHFDHGMTFEKIQETLEIGFSSVMFDGSHYPLEENIQKTKEIVELAKQYGATVEAEIGRVGGSEDGSEDIEMLLTSTTEAKRFAEETDVDALAVAIGNAHGMYNGDPNLRLDRLQEINDVVHIPLVLHGGSGISPEDFKQCIQHGVRKINVATATFQNVITAVNNTVLNTPYSDYFTYHQDVIKAAYENVKSHMQIFGSENRA” belongs “not soluble”.
On to “MSKISQQNSTPGVNGISVIHTQAHASGLQQVPQLVPAGPGGGGKAVAPSKQSKKSSPMDRNSDEYRQRRERNNMAVKKSRLKSKQKAQDTLQRVNQLKEENERLEAKIKLLTKELSVLKDLFLEHAHNLADNVQSISTENTTADGDNAGQ”, for which the “soluble on expression in E. coli” value is on record as “soluble”.
Next, “MSDPHQSQQLVTAGTALSEASAAAVLVHGRGATARSIVQMGAEFQQDGLALLAPQAARNTWYPNSFLSPVEQNEPGRSSGLQAIEDAVTKAAEAGIPTDHVLILGFSQGACLASEFVARNPQRYGGLVALSGGLIGESIDESEYEGDIEETPVFLGCSNVDPHIPEERVHVTASVFERLNGDVEERIYEGMGHGVNEDELAYVSSLTAGLVN”: “not soluble”; “MYNDEELITVQPEAFKALTPSKKFNETSNKLLDLAYSDDGNNLIVSAEDVVLVYDLRDGSKGKSIECKKYGVNCLEYLDTVKCVHSGPNDTTIRLLHLQKKSYVRYFDGHRMPVNFIRTNPKDREKFLSSSVDGEIRMFDTRTFENYGCLLAGHTPLIAFDPDGILFAVATKSDTIKLFDMRSFDLGPFQSFIITKTDNDEWSDIEFSPCGKFILISTTAGSVKWIDAFDGTLIHSFSQHKNPNVSFF”: “not soluble”; “MLAKIIMKNFKSFKNETVIDFTRINYKFLENNVSNNGVLKGVAFYGANASGKSNVLWAIRFLLDELFGEEKNPVTFMKCLFSDEPEFSLQYFFVIESREIHYLIDFHTEKGIINEELYLDRKLLLQRMGSTAKSGITEKKVYTDLNNKVLFLRTVYFNTGFSGDDKDNNANNNILRQWFDYMQNSIYVNPFLHRGIAYGKQDVVLNKYLENEGVKEINRFFTKYNFEYTLDYLNERKVKDVTEIVNDDNIKLVFFNRKGVNVPIPYVLESHGNQNLLNILPCFLRVVQNSGMLLVDEFSGGLHNELERLLVNYFFLEHHHHHH”: “not soluble”.
To “MESLAAKVVERLNRAESAAELRFCHDELARELRRCLAPEQMKQLAGDVVCVHEAILRRAFFLAERETMKRSVGIRPPAWCWYVMGSIGRREPTIWTDQDHGILFDCPEEEEAACYEFIRHMAAVGVDMLHEAGYPYCSGYVMATNKRWAQSVRGWEQQLSSYLDSGWPNDIRFLLIAMDMRPLYGETELAEEGRRMLFSAVAKRPPLLAVRPAWVRRYRVKVPNGGWRAPTVS” belongs “not soluble”; to “MGKEVMGKKENEMAQEKERPAGSQSLFRGLMLIEILSNYPNGCPLAHLSELAGLNKSTVHRLLQGLQSCGYVTTAPAAGSYRLTTKFIAVGQKALSSLNIIHIAAPHLEALNIATGETINFSSREDDHAILIYKLEPTTGMLRTRAYIGQHMPLYCSAMGKIYMAFGHPDYVKSYWESHQHEIQPLTRNTITELPAMFDELAHIRESGAAMDREENELGVSCIAVPVFDIHGRVPYAVSISLSTSRLKQVGEKNLLKPLRETAQAISNELGFTVRDDLGAIT”, “soluble”; to “MGSDKIHHHHHHAIRANVMASNVDSLYSKVDTLSEQSKKNNVVREEFDYSALSFYVENFAKEYLNYNSKASDEAKKARIDRLSKYLSLDVKDVDETENLQGNVLRTFKNTSLSRIEKMEDCYLVYLNVNYELEKDKKTENVTQNMVLPIQVKDNLFSIVGRPYFVASSLPQGKTVSLKQTENSIDVDGKEKQSIEKFLKMFFTKYSVGNKQELMLLMKNPTTTAGQDSFVSIDSGDMKFFDTKQKGVTGVQVSVTFSDKTTKLTHTEDFSLWLSKTENSYFINTMKHYFTEKEGND”, “not soluble”.
In the case of “MAHHHHHHMSLLKADQLRRDLFIKYSDKIAELLGETEECSPTEEQREKEEIETTEQRGLSSLPKRFRISYPRQHLLRQRAMQMPPAADVGDAENSPASASNSTCPPLGETATDEDENVETIWVELDEEEKRPVYNEPYPSVKRMMRRMQDESLRLLMREARIPVTPHQGDAYLLQRMEVLQQLEKNIGDDRIKILARLQKMDGKLHTCE”, the “soluble on expression in E. coli” value is “soluble”.
Take “MGSDKIHHHHHHMLTASVNEAEPCAEPQRPVIRLHPVTADDAPKLPATRCSTCAIRNVCMPAGLTPIEFARLDAMVCTTRHVKRGDALFRTHDTFQSIYAVRTGSFKTVVMHRDGREQVTGFQIVGETLGLDGVCGGRHNSDAIALEDSTVCIIPFAQLEAVCREVKPMQHHVHQLMSGEIVRESSLMMLLGTMTAEQRVAAFLLNISERFQKRGYSASEFNLRMTREEIGCYLGMKLETVSRMLSKFQRDRLIAPRGKQIRITDPQGLARV”: the “soluble on expression in E. coli” value is listed as “not soluble”.
Next, “MGSDKIHHHHHHMRVIPPIKSIIYFEAAARLQSFKLAAMELNVTPGAISHQISTLEDFIGKKVFERGSRRVTLTYCGLRYYSRISIILQNMEEATVDLGIEGSKPKIKIAIPPSLLKNWLLPRLVDDKLKDLNRSVEFIDTLDYLEFSKCDLDLAIRYGYDSWDNLYSVFLFHEEMIPVCHPNYFISEFTDFTQEIIDNHTLIFTNNRLVQWDIVMQYFGLERKSTQSKLIFQNSIQAIEAAIQGAGIAYVNRILVSKELSNGRLIQPFDIYMPKHKSPAYHLVSTYEHMQDEATFKLYQTILEFAKSTPHQHIVNAQAKQNAWLEHAV”: “not soluble”.
